The subject of one assay is Colo205 cells. Nature of the assay: Quenching of Alexa488 by anti-Alexa488 antibody, flow cytometry, internalized fraction. It counts as cell-based, human. The protocol: Quantification of internalization can also be performed by fluorescence-based quenching methods. In particular, a fluorescence-based Alexa488-quenching method has been described to analyze internalisation of targeting agents (Frejd et al. 2010, International Journal of Oncology, 36: 757-763). According to said description, internalization is calculated as the Mean fluorescence intensity (MFI) value of quenched cells (intracellular compartments only) divided by the MFI value of unquenched cells (both cell surface and intracellular compartments) at 37° C., according to the following formula: […]
The cells were washed twice in ice cold PBS in a cold centrifuge, and resuspended in 500 nM quenching anti-Alexa488 antibody diluted in ice cold PBS. All tubes were incubated for 1 h on ice. Without washing, all cells were fixed in two volumes of 2% paraformaldehyde for 10 min at room temperature. The paraformaldehyde was removed by one wash in PBS, and the cells were resuspended in PBS and analyzed in a flow cytometer (Guava® easyCyte 8HT Flow Cytometry System).
An internalization positive control experiment was done in parallel with Alexa488-labelled Transferrin (600 nM).
Mean fluorescence intensity (MFI) values obtained from the flow cytometry reading of 5×10^4 cells per tube were used for all calculations. Internalization was calculated as the MFI value of quenched cells (intracellular compartments only) divided by the MFI value of unquenched cells (both cell surface and intracellular compartments) at 37° C. as described in the formula: […]
In general terms: In flow cytometry, cells or beads pass a laser one at a time.

The conditions of assay [1]: cited from earlier work.
For assay [2], the target named is T1, cell surface LAMP1 on Patient-derived tumor xenografts and tumor cell lines (Homo sapiens, UniProt P11279).
T1 construct: endogenous in cells; host or cells: enzymatically dissociated patient-derived xenograft tumour cells (e.g. CR-IGR-034P, LUN-NIC-014P, BRE-IGR-0159) and tumour cell lines
T1 sequence (P11279 29-417): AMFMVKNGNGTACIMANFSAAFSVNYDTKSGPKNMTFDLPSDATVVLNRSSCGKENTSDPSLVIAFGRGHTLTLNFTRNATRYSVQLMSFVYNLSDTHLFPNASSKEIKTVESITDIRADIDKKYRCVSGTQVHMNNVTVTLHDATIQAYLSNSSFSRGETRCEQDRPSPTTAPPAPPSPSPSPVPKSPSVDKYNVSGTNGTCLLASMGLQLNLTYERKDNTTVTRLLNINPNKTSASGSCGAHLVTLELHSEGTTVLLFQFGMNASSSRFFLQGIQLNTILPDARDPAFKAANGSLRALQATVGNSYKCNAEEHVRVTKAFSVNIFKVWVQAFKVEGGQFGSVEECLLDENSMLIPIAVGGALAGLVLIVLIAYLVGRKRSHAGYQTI
The experiment in a line: Antibody binding capacity (ABC) by FACS on patient-derived xenografts and tumor cell lines. Particulars: FACS. The protocol: Antibody binding capacity of antibody was determined using Mouse IgG Calibrator kit (Biocytex #7208) or Human IgG Calibrator Kit (Biocytex #CP010) according to the manufacturer's instructions.
The panel of tumor cells comprises Patient-derived tumor xenografts from different origins and tumor cell lines. FIG. 2 illustrates the expression profile and Table 4 summarizes the antibody binding capacity results.
(§1) The panel of tumor cells comprises Patient-derived tumor xenografts from different origins and tumor cell lines.

In assay [3] the target is T2, LAMP1 in FFPE colon adenocarcinoma PDX CR-LRB-010P and human breast carcinoma (Homo sapiens, UniProt P11279).
T2 construct: from tissue; host or cells: human tumoral and non-tumoral tissue sections and PDX tumour sections (frozen-OCT, AFA, FFPE)
T2 sequence (P11279 29-417): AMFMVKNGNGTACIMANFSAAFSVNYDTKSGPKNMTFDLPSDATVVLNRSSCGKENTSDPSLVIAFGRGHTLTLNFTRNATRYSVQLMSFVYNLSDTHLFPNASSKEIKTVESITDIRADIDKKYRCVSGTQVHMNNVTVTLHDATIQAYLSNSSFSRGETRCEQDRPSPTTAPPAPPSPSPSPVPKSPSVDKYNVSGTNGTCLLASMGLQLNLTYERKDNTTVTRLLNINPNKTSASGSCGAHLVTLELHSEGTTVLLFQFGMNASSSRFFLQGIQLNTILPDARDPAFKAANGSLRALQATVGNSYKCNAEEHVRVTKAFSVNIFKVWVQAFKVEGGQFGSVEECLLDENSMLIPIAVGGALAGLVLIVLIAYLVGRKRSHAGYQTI
The experiment in a line: IHC on FFPE tumor tissue, LAMP1 membrane reinforcement. Particulars: FFPE samples. The text has this:
IHC analysis of tumor tissues from biobanks or from hospitals before or during patient treatment is routinely done with formalin-fixed paraffin-embedded (FFPE) samples. […] One of the reasons is probably the effect of the formalin fixative combined to the complexity of the protein. Samples processed in frozen OCT or AFA are not routinely prepared in hospitals. Therefore, there is a need to have a mAb that would allow complete and fast coverage of the FFPE tumor biobanks and hospital samples.
Rabbit polyclonal antibodies generated with peptides described in example 17.1.1 were tested by IHC on FFPE sample of colon adenocarcinoma patient derived xenograft CR-LRB-010P and human breast carcinoma. After antigen retrieval procedure and endogen biotins blocking steps, slides were incubated with the primary anti-antibody for 1 hour at 24° C. Negative controls were performed by omission of the primary antibody. The biotin free anti-rabbit UltraMap™ horseradish peroxidase (HRP) conjugate (760-4315, Ventana Medical Systems, Inc, USA) was used as secondary antibody system according to manufacturer's recommendations. A couterstaining step was done with hematoxylin (760-2037, Ventana Medical Systems, Inc, USA) and bluing reagent was applied (760-2037, Ventana Medical Systems, Inc, USA). Stained slides were dehydrated and coverslipped with cytoseal XYL (8312-4, Richard-Allan Scientific, USA).
As the same manner as in example 17.1.2, IHC screening was performed with the hybridoma supernatant to identify mouse monoclonal antibody showing LAMP1 membrane reinforcement on FFPE sample of colon adenocarcinoma patient derived xenograft CR-LRB-010P. The biotin free anti-mouse UltraMap™ horseradish peroxidase (HRP) conjugate (760-152, Ventana Medical Systems, Inc, USA) was used as secondary antibody system according to manufacturer's recommendations.

The target of assay [4] is T3, patient-derived xenografts from colon, lung and breast origin and tumor cell lines (Homo sapiens, UniProt P11279).
T3 construct: endogenous in cells; host or cells: enzymatically dissociated patient-derived xenograft tumour cells (e.g. CR-IGR-034P, LUN-NIC-014P, BRE-IGR-0159) and tumour cell lines
T3 sequence (P11279 29-417): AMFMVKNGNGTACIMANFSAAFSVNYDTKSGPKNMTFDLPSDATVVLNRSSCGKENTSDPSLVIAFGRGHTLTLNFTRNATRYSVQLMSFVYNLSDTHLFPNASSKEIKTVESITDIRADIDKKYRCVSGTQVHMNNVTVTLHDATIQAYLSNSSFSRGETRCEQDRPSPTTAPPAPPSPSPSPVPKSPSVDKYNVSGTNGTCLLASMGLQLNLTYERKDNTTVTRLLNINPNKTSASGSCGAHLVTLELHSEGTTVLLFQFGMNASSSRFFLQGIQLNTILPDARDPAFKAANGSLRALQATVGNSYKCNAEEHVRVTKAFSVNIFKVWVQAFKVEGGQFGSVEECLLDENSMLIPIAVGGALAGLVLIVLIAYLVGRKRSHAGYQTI
Nature of the assay: Binding to patient-derived xenograft tumor cells by flow cytometry (mean fluorescence). The following applies: for Mean Florescence Intensity (MFI): FACS. The protocol: Advanced human primary tumors from colon (CR-IGR-034P), lung (LUN-NIC-014P and breast (BRE-IGR-0159) indications were obtained from patient-derived xenograft (PDX) in mice as described in example 1. PDXs were enzymatically dissociated using collagenase Type IV (Invitrogen; #17104-019) and deoxyribonuclease I (Invitrogen, #18047-019) for 1 h at 4° C. Cell viability was estimated by Viacount application using Guava® easyCyte™ 8HT Flow Cytometry System. Tumoral cells were coated at 40,000 cells/well on 96-well High Bind plate (MSD L15XB-3) and 100 μL of antibody was added at 20 μg/mL for 45 min at 4° C. and washed three times with PBS 1% BSA. 100 μL of goat anti-human IgG conjugated with Alexa488 (Invitrogen; #A11013) was added for 45 min at 4° C. and washed three times with PBS 1% BSA. The antibody binding was evaluated after centrifugation and resuspension of cells by adding 200 μL/well PBS 1% BSA and read using Guava® easyCyte™ 8HT Flow Cytometry System. The mean fluorescence was recorded and plotted in the graph shown in FIG. 12 to illustrate the expression profile of the three mAbs onto the three PDXs.
as §1
On the technique in general: Xenograft models place foreign cells or tissue in a host animal.

For the next assay, the target named is T4, recombinant human LAMP2 (Homo sapiens, UniProt P13473).
T4 construct: purchased R&D Systems 6228-LM
T4 sequence (P13473 with tags, fused parts or gaps): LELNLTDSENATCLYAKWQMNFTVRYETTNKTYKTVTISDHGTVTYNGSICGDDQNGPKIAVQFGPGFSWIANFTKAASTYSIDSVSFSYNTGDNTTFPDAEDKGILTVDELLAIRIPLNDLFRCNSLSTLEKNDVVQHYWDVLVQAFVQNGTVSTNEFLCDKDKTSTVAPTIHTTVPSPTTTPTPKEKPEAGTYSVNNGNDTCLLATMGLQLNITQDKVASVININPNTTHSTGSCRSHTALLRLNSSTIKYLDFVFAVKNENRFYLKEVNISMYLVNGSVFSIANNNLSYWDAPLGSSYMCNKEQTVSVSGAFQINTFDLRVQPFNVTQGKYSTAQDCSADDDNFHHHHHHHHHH
Nature of the assay: Specificity ELISA on recombinant human LAMP2. It counts as binding. The method, then: LAMP2 is the closest member of the LAMP family with 35% sequence identity to LAMP1. […] Anti-LAMP1 antibodies were added to the plates and detected by using rabbit anti-mouse IgG conjugated with horseradish peroxidase (Sigma; #A9044). Antibody binding was visualized by adding TMB-H2O2 buffer and read at a wavelength of 450 nm.
LAMP2 is the closest member of the LAMP family with 35% sequence identity to LAMP1. Specificity of MAb4 was evaluated by ELISA as described in example 4.6 with either LAMP1 or LAMP2 soluble proteins, as shown in FIG. 41.
(In general: ELISA stands for enzyme-linked immunosorbent assay.)

[5] abbreviates: Colo205, 4 h, 500 nM quenching anti-Alexa488 antibody.

Where two headings read alike, the source gives them in different places.

Regarding “Alexa488-Transferrin: internalization positive control”, in the assay on Colo205 cells (setting [5]), the “MFI 4° C. Quencher” value is listed as 8.98 and the “MFI 37° C. Quencher” value is on record as 1210. Moreover, in the assay on Colo205 cells (Colo205, 4 h, unquenched), the “MFI 4° C.” value was determined as 35.78 and the “MFI 37° C.” value was found to be 1228. For the same molecule, the “total cell fluorescence that was intracellular” value in the assay with Colo205 cells (Colo205, after 4 h at 37° C.) is “about 98.5%”.
In the case of “transferrin: transferrin, literature internalization reference”, the IS in assay [1] (cells incubated at 37° C. for one hour) is recorded as 0.9; in assay [1] (cells left on ice), 0.

B1: MAb4: mouse monoclonal anti-LAMP1 antibody from hybridoma 88LAMP1-2, VH SEQ ID NO: 88, VL SEQ ID NO: 89 (antibody, listed as Mus musculus, V domains shown)
VH: QVQLQQSGAELVRPGTSVKVSCKASGYAFTNYLIEWVKQRPGQGLEWIGVINPGSGGTNYNEKFKGKATLTADKSSSTAYMQLSSLTSDDSAVYFCARYRSYDWYFDVWGAGTTVTVSS
VL: DIQMTQSPASLSASVGETVTITCRVSGNIHNYLAWYQQKQGKSPQLLVYNAKTLADGVPSRFSGSGSGTQYSLKINSLQPEDFGSYYCQHFWSNPYTFGGGTKLEIK
As to B1, the “Antibody Binding Capacity (ABC)” value in assay [2] (CR-IGR-034P/colorectal PDX) is reported as 260 000; in assay [2] (Colo205/colon cell line), 3000; in assay [2] (LUN-NIC-006/lung PDX) it was 92 000; in assay [2] (LUN-NIC-033/lung PDX) it was 87 000. Also, the “LAMP1 membrane reinforcement in FFPE format by IHC” value in assay [3] was “displayed membrane reinforcement immunostaining”. For the same molecule, the “Mean Florescence Intensity (MFI)” value in assay [4] (BRE-IGR-0159/breast PDX) was determined as 400; in assay [4] (CR-IGR-034P/colorectal PDX) it was 424; in assay [4] (Colo205/colon cell line), 7; in assay [4] (LUN-NIC-006/lung PDX), 162; in assay [4] (LUN-NIC-033/lung PDX) it was 154. The “binding to tumor cells by flow cytometry” value in assay [4] (PDX and tumor cell lines) is reported as “able of binding to multiple tumor cells”. Further, the “binding to LAMP2” value with recombinant human LAMP2 was “No binding”. Further, the “difference between the EC50 towards LAMP1 versus LAMP2” value with recombinant human LAMP2 is on record as “more than 100 fold”.

These data come from patent US9809653B2, “Anti-LAMP1 antibodies and antibody drug conjugates, and uses thereof” (SANOFI, priority 2012, dated 2017).
